Assay [1] addresses Human MAP/Microtubule Affinity Regulating Kinase 4 (MARK4), recombinant, containing both kinase and UBA domains (human) (UniProt Q96L34).
For assay [2] the target is unchanged. As to the kind of experiment: ITC; VP-ITC; 15 µM MARK4 in the sample cell, 200 µM irisin in the syringe; two-site model. (In ITC the heat of successive injections is recorded.)
For assay [3] the target is unchanged. As to the kind of experiment: other fluorescence titration; quenching of the intrinsic fluorescence of MARK4 (emission at 344 nm) by irisin, 0-1 µM; fitted to a modified Stern-Volmer equation.

Chain of UniProt Q96L34 (Q96L34 44-370): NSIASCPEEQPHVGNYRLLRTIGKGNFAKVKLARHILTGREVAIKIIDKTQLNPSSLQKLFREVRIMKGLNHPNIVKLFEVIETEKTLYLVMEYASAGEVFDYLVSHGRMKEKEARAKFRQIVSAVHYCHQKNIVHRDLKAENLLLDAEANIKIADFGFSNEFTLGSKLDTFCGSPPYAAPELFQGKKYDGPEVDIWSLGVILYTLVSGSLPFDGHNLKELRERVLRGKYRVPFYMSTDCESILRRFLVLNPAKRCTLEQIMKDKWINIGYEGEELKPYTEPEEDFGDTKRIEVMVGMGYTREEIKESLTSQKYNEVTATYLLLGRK

Take Human irisin (natural protein): in assay [1], the IC50 of inhibition of MARK4 kinase activity (ATPase assay), irisin 0-15 µM is 2710 nM. Besides, in assay [2], the Ka1 (site 1 of the two-site model) came out at 2590 M⁻¹, the Ka2 (site 2 of the two-site model) stood at 1.19e+06 M⁻¹, the dH1 (site 1 of the two-site model) is -1550 kcal/mol and the dH2 (site 2 of the two-site model) was 190 kcal/mol. The Ka in assay [3] amounted to 8e+06 M⁻¹.

The values are drawn from publication PMC8537121.
